{
  "source": "paper doi:10.1101/536094",
  "about": "(bioRxiv, 2019)",
  "molecules": {"B1": {"name": "wild-type human CaMKII-α hub domain (domain or fragment, UniProt Q9UQM7 345-475, looked up)", "chain": "VRKQEIIKVTEQLIEAISNGDFESYTKMCDPGMTAFEPEALGNLVEGLDFHRFYFENLWSRNSKPVHTTILNPHIHLMGDESACIAYIRITQYLDAGGIPRTAQSEETRVWHRRDGKWQIVHFHRSGAPSV"}, "B2": {"name": "six-mutant human CaMKII-α hub domain (domain or fragment, UniProt Q9UQM7 345-475, looked up)", "chain": "B1 chain with T10N, E11Q, T68N, I70M, I120H, F123M"}},
  "key": {"[1]": {"target": "Volvox carteri f. nagarensis CaMKII hub domain (Volvox carteri f. nagarensis)", "test": "native MS"}, "[2]": {"target": "Gonium pectoral CaMKII hub domain (Gonium pectoral)", "test": "native MS"}, "[3]": {"target": "Chlamydomonas reinhardtii CaMKII hub domain (Chlamydomonas reinhardtii)", "test": "native MS"}, "[4]": {"target": "Chlamydomonas reinhardtii CaMKII hub domain (Chlamydomonas reinhardtii)", "test": "crystal structure"}, "native MS": {"target": "the molecule itself", "test": "native MS"}, "crystal structure": {"target": "the molecule itself", "test": "crystal structure"}},
  "note": "Where a chain is given by its changes, count along the chain named. Values joined by “and” are separate entries in the source; they are usually repeats but may differ in a detail not shown here. Equal entries are not always repeated.",
  "data": [
    {"molecule": "Volvox carteri f. nagarensis CaMKII hub domain (domain or fragment)", "values": [
      {"measurement": "stoichiometry N", "setting": "[1]", "result": "18 subunits and 20 subunits"}
    ]},
    {"molecule": "Gonium pectoral CaMKII hub domain (domain or fragment)", "values": [
      {"measurement": "stoichiometry N", "setting": "[2]", "result": "16 subunits and 18 subunits"}
    ]},
    {"molecule": "Chlamydomonas reinhardtii CaMKII hub domain (domain or fragment)", "values": [
      {"measurement": "stoichiometry N", "setting": "[3]", "result": 18, "unit": "subunits"},
      {"measurement": "stoichiometry N", "setting": "[4]", "result": 18, "unit": "subunits"}
    ]},
    {"molecule": "B1", "values": [
      {"measurement": "stoichiometry N", "setting": "native MS", "result": "12 subunits and 14 subunits"}
    ]},
    {"molecule": "B2", "values": [
      {"measurement": "stoichiometry N", "setting": "crystal structure", "result": 14, "unit": "subunits"},
      {"measurement": "stoichiometry N", "setting": "native MS", "result": 16, "unit": "subunits"}
    ]}
  ]
}
